Test results reported in the supplement of paper PMC12042874.
± gives the uncertainty stated by the source.

Assay: amyloid nucleation score (Sup35N fusion, yeast selection) (log enrichment); library NNK2; higher = more nucleation; inactive = no reads after selection
Procedure, shortened: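 Sup35N was fused to peptides of 20 random codons and expressed in psi-negative yeast, which were induced with 100 μM copper sulfate for 24 hours and then grown on medium lacking adenine and uracil for 7 days at 30°C. Plasmid inserts from input and output were sequenced on Illumina. The nucleation score is the DiMSum log enrichment of output over input reads, centred on the mode score of non-aggregating sequences. Sequences with under 100 input reads were left out, and random libraries had three technical output replicates.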
EGGLYNCYADTPTKVW showed an amyloid nucleation score of -1.07 ± 0.74. For EGLIDCCIH, the amyloid nucleation score was “inactive”. For EGQSGAILGLMRGTSWVESA, the amyloid nucleation score was 0.984 ± 0.32. With EGTIWRVSW the amyloid nucleation score was 0.392 ± 0.56. With EHIASLVMNAANSTNPVGQK the amyloid nucleation score was -0.339 ± 0.76. With EIFFKCGFLLLGCDRPGRVR the amyloid nucleation score was 0.413 ± 0.43. For EIIFVMPVFYIFKTLCLLSA, the amyloid nucleation score was 0.332 ± 0.16. In the case of EILYFSTAFYLSTWEDTIFT, the amyloid nucleation score is reported as “inactive”. EKFESERISFRAMGQGEVLR showed an amyloid nucleation score of 4.61 ± 0.079. For EKGVGL, the amyloid nucleation score was -0.449 ± 0.5. For EKHWSFFTGMSVSHRLFRQN, the amyloid nucleation score was “inactive”. EKRNVVVHLIGRWSTTLYWV gave an amyloid nucleation score of 1.25 ± 0.49. ELALGIHYPFNKLYDINKGC gave an amyloid nucleation score of -1.5 ± 0.35. Work on ELGHDYYSCCGFSAREYMEH yielded an amyloid nucleation score of 4.56 ± 0.065. Work on ELHLFHATPRY yielded an amyloid nucleation score of 6.61 ± 0.067. With ELTTIG the amyloid nucleation score was 1.62 ± 0.28. ELVVHFFLFIMGACLHVENQ gave an amyloid nucleation score of -0.368 ± 1. ELVVPQWGQRRVHDLVCVEP showed an amyloid nucleation score of 1.75 ± 0.29. Work on ELVYHLSNLKG yielded an amyloid nucleation score of -0.381 ± 1.1. ELYRCA showed an amyloid nucleation score of 0.744 ± 0.22. EMWSISIKISGR gave an amyloid nucleation score of 0.763 ± 0.57. EMYRCGWCLWMHNRLTATVR showed an amyloid nucleation score of 1.86 ± 0.28. Substance ENELSPRGCRGEPLA has an amyloid nucleation score of 0.536 ± 0.62. For ENEWCCLWGRAKRVAGVQEV, the amyloid nucleation score was 0.495 ± 0.62. In the case of EPTMVRFDSLFVSDCYMSA, the amyloid nucleation score is reported as 0.499 ± 0.4. In the case of ERDSGPEYIVCIQVVIYLGM, the amyloid nucleation score is reported as 3.06 ± 0.052. For ERFPDCCLFNLDVFVSVLNI, the amyloid nucleation score was 5.022 ± 0.027. Substance ERGGIYWHVGRFSPDSEVTF has an amyloid nucleation score of -0.27 ± 0.76. In the case of ERLGSLFNDGQANS, the amyloid nucleation score is reported as 0.21 ± 0.41. For ERLRSLKDNIMNFCKSRLGL, the amyloid nucleation score was “inactive”. With ERTCSIRDPNRDIPGFPFSY the amyloid nucleation score was “inactive”. Substance ERTMF has an amyloid nucleation score of 0.396 ± 0.3. For ESHFCLLATVMKDNLTVGSM, the amyloid nucleation score was -0.578 ± 0.45. With ESIGVINCYWIWATSIPLEG the amyloid nucleation score was “inactive”. For ESILKHSMPSYGFFLF, the amyloid nucleation score was “inactive”. ESKVAIA showed an amyloid nucleation score of -0.247 ± 0.24. For ESLWMRTLMNVHYSDFRVTV, the amyloid nucleation score was -0.174 ± 0.22. Substance ESPTVCPANF has an amyloid nucleation score of -0.248 ± 0.65. Work on ESYCAC yielded an amyloid nucleation score of 1.55 ± 0.28. Work on ESYKCVFRLIDWNIDYILTV yielded an amyloid nucleation score of 0.855 ± 0.57. Work on ETCSAVFIN yielded an amyloid nucleation score of 0.041 ± 0.62. ETESG showed an amyloid nucleation score of 0.72 ± 0.38. For ETHIITCLRYRRRMARPHRY, the amyloid nucleation score was “inactive”. Work on ETMIHTPQELYVMYSPLTQQ yielded an amyloid nucleation score of 6.263 ± 0.051. ETPLTGLRNPSLNQCLMELM showed an amyloid nucleation score of 0.232 ± 0.5. In the case of EVADSRKVSSATWSISSNQR, the amyloid nucleation score is reported as 1.41 ± 0.4. Work on EVEIVAWFGLHHSWWH yielded an amyloid nucleation score of 3.25 ± 0.08. For EVLTVYFARRFVESSGRGTG, the amyloid nucleation score was 2.38 ± 0.13. Work on EVVLFF yielded an amyloid nucleation score of -1.35 ± 0.62. EYCACTFDWWGYQGCCD gave an amyloid nucleation score of -1.04 ± 0.63. In the case of EYFTYVSAVWKSWCTYGGPA, the amyloid nucleation score is reported as 0.529 ± 0.38. Work on EYSRVLTGVFLIQSYCKFGN yielded an amyloid nucleation score of -0.219 ± 0.2. For EYVRFYLMGISWEAEKSHAL, the amyloid nucleation score was 4.23 ± 0.11. FACNLGFMTSSFMRWSNTSA gave an amyloid nucleation score of 0.356 ± 0.33. With FADTKDEGLYFGLMALLLEV the amyloid nucleation score was 0.016 ± 0.65. For FAFAINRFCDSRRPVLCYWD, the amyloid nucleation score was -1.21 ± 1.1. For FAFIYVIT, the amyloid nucleation score was “inactive”. For FAIDMRYVGGQGCCILYIRR, the amyloid nucleation score was 0.075 ± 0.44. FAIRYTVMTLFCIRLGLLKV gave an amyloid nucleation score of -0.707 ± 0.27. In the case of FAMRTSKKVSRTTAGGTDPF, the amyloid nucleation score is reported as -0.696 ± 0.54. FASALNYTLYWSSSLTLFAL gave an amyloid nucleation score of 2.54 ± 0.067. In the case of FCCSKLAPRTGYYSF, the amyloid nucleation score is reported as 7.12 ± 0.066. FCDALQISSYTSENYGIVWS showed an amyloid nucleation score of -0.685 ± 0.36. FCDFY showed an amyloid nucleation score of -1.2 ± 0.41. FCGFMGTAPHMRPYVMPWLR showed an amyloid nucleation score of 0.816 ± 0.46. FCGIGSPHYGRSAALQLRLM showed an amyloid nucleation score of 0.708 ± 0.37. Work on FCISFYTNIPSDS yielded an amyloid nucleation score of -0.836 ± 0.55. Work on FCKFMSCESRPCNIMKCWGV yielded an amyloid nucleation score of 0.276 ± 0.6. With FCLLIGLLFTYWLSINFAIT the amyloid nucleation score was “inactive”. Work on FCLTVLVV yielded an amyloid nucleation score of 4.18 ± 0.11.
